Results taken from patent US20110207221.

Key:
Experiment in all cases: cell_activity
[1] = system: ZFN 11177 (BAK del. B) (synthetic); conditions: CHO-K1; BAK deletion B, two ZFN pairs
[2] = system: ZFN 10342 (BAK) (synthetic); conditions: CHO-K1; BAK deletion, two ZFN pairs
[3] = system: ZFN 10311 (BAK) (synthetic); conditions: CHO-K1; BAK deletion, two ZFN pairs
[4] = system: ZFN 10317 (BAK del. A) (synthetic); conditions: CHO-K1; BAK deletion A, two ZFN pairs
[5] = system: ZFN 10344 (BAK) (synthetic); conditions: CHO-K1; BAK deletion, two ZFN pairs
[6] = system: ZFN 11183 (BAK) (synthetic); conditions: CHO-K1; BAK deletion, two ZFN pairs
[7] = system: ZFN 16247 (POU5F1) (synthetic); conditions: K562; two ZFN pairs co-transfected
[8] = system: ZFN 16248 (POU5F1) (synthetic); conditions: K562; two ZFN pairs co-transfected
[9] = system: ZFN 16246 (POU5F1) (synthetic); conditions: K562; two ZFN pairs co-transfected
[10] = system: ZFN 16245 (POU5F1) (synthetic); conditions: K562; two ZFN pairs co-transfected, deletion only with both

AGGATTAGGAGGATGGGATTTGGCACTG (double strand) [BAK site of 11177]
activity (% cells with deletion) [1]: 1

GCGGCCAGGCCAAGGCAGACTTTCTGAC (double strand) [BAK site of 10342]
activity (% cells with deletion) [2]: 1

CAGCACGGGCCCAGGGTGGGGCAGAAAG (double strand) [BAK site of 10311]
activity (% cells with deletion) [3]: 1

GCCAGGATTAGGAGGATGGGATTTGGCA (double strand) [BAK site of 10317]
activity (% cells with deletion) [4]: 1

ATCAGGAAGAGGCTGGGTGTCACAGCGT (double strand) [BAK site of 10344]
activity (% cells with deletion) [5]: 1

CACGGGCCCAGGGTGGGGCAGAAAGCCC (double strand) [BAK site of 11183]
activity (% cells with deletion) [6]: 1

ATGTAACAAAGGACTACTCTTCCCCCAG (double strand) [POU5F1 site of 16247]
activity (% cells with deletion) [7]: 4

ATGAGTCAGTGAACAGGGAATGGGTGAA (double strand) [POU5F1 site of 16248]
activity (% cells with deletion) [8]: 4

GGGCTCTGGAAGGCCCACTTCAGGGCCT (double strand) [POU5F1 site of 16246]
activity (% cells with deletion) [9]: 4

AAGCTGGTCTGGTGGCTAGGTAGATCCT (double strand) [POU5F1 site of 16245]
activity (% cells with deletion) [10]: 4
